Reference: patent US20240092867A1 (UNIVERSITY OF CHICAGO, published 2024)

How the values were obtained:
[1] = biological target: T1, laminin-521 (human, UniProt O15230 36-3695; P55268 33-1798; P11047 34-1609); assay: SPR, laminin-521 immobilised, GF flowed, Langmuir fit
T1 construct: Full-length recombinant human laminin isoform (BioLamina); chains read from the isoform name
Method: (§1) A450 nm represents absorbance at 450 nm. BSA-coated wells served as negative controls (n=4, mean±SEM). Signals greater than 0.1 (grey box) are considered to be significant. […] Experimental curves were fitted with Langmuir binding kinetics.
(§2) The obtained binding curves were fitted with Langmuir binding kinetics to calculate specific dissociation constants (KD) (FIG. 1B).
(§3) SPR analysis was performed as described previously². In brief, measurements were made with a Biacore 3000 SPR system (GE Healthcare). […] VEGF-A165, PDGF-BB, or PlGF-2 was flowed at increasing concentrations in the running buffer at 20 μL/min. The sensor chip was regenerated with 50 mM NaOH for every cycle. Specific bindings of GFs to laminin were calculated by comparison to a non-functionalized channel used as a reference. Experimental results were fitted with Langmuir binding kinetics using BIAevaluation software (GE Healthcare).

[2] = biological target: T1, laminin-521; assay: SPR; laminin-521 immobilised on the chip (~2000 RU), VEGF-A165 flowed at 10-100 nM; Langmuir fit
Method: as §1, §2, §3

[3] = biological target: T2, recombinant laminin α3 2928-3150 protein (linker domain and LG4 domain) (human, UniProt Q16787 2928-3150); assay: SPR; α3 2928-3150 recombinant protein immobilised (~1000 RU), VEGF-A165 flowed at 0.325-10.4 nM; Langmuir fit [panel D]
T2 construct: range 2928-3150; Made in HEK-293F cells; also called laminin alpha 3 LG domain recombinant protein
T2 sequence: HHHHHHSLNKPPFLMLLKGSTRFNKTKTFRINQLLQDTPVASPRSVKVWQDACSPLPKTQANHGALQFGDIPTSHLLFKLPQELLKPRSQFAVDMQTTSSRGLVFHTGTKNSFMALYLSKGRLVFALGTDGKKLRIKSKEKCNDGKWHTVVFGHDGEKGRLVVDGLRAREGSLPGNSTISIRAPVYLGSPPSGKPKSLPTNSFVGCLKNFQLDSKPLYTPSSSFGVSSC
Excerpt: Statistical analyses were done using the Mann-Whitney U test by comparing the signals obtained from the laminin domain- and the BSA-coated wells. *p<0.05, **p<0.01. […] A SPR chip was functionalized with the laminin α3₂₉₂₈₋₃₁₅₀ recombinant protein (˜1000 RU), and each GF was flowed over the chip at indicated concentrations. Curves represent the specific responses (in RU) to laminin. Experimental curves were fitted with Langmuir binding kinetics.
Because the GFs that bound to laminins have also been previously reported to bind to other ECM glycoproteins through HBDs, it was hypothesized that HBDs of laminins might be responsible for the interactions between GFs and laminin. To address this hypothesis, ELISA assays were repeated for VEGF-A165, PlGF-2 or FGF-2 in the presence of heparin added in excess (10 μM). […] To further confirm this, the inventors tested direct GF binding to the LG domains from human laminin α3, α4 and α5, within which HBDs of laminin were localized.
SPR analysis was performed as described previously². In brief, measurements were made with a Biacore 3000 SPR system (GE Healthcare). […] VEGF-A165, PDGF-BB, or PlGF-2 was flowed at increasing concentrations in the running buffer at 20 μL/min. The sensor chip was regenerated with 50 mM NaOH for every cycle.

Kd [1]: 5.8 nM
Kd [2]: 5.78 nM
koff [2]: 0.00324 s⁻¹
kon [2]: 561000 M⁻¹ s⁻¹
Kd [3]: 1.47 nM
koff [3]: 0.00663 s⁻¹
kon [3]: 4.52e+06 M⁻¹ s⁻¹
B1: vascular endothelial growth factor (VEGF)-A165 (ligand, human, UniProt P15692-4 27-191, looked up)
chain: APMAEGGGQNHHEVVKFMDVYQRSYCHPIETLVDIFQEYPDEIEYIFKPSCVPLMRCGGCCNDEGLECVPTEESNITMQIMRIKPHQGQHIGEMSFLQHNKCECRPKKDRARQENPCGPCSERRKHLFVQDPQTCKCSCKNTDSRCKARQLELNERTCRCDKPRR
notes: mature; Purchased in mature form, not glycosylated
